For one substance, threshold concentration of polymerisation results are on record in PMC9342958.

The test addresses CARD9 CARD fused to mEos3.1 (human). Briefly: FRET or BRET; DAmFRET (Distributed Amphifluoric FRET) in living S. cerevisiae: protein fused to mEos3.1, GAL promoter, about 16 hr in galactose, part of mEos3.1 photoconverted to the acceptor form, AmFRET against expression level by flow cytometry. On the technique in general: In BRET a luciferase serves as donor, and the signal depends on an acceptor being close.

For the substance “CARD9 CARD fused to mEos3.1 (domain or fragment)”, the threshold concentration of polymerisation is 100 µM.
